Data reported in paper PMC9176643 (bioRxiv, 2022).

Target: SARS-CoV Urbani RBD (SARS-CoV Urbani, UniProt P59594)
Test: ELISA

B1: S2X324 mAb (antibody, V domains shown)
VH: QITLKESGPTLVKPTQTLTLTCTFSGFSVTTSGVGVGWIRQPPGKALEYLALIYWDDDKRYSTSLKSRLTITKDTSKNQVVLTMTNMDPVDTATYYCARHTIPSIFDYWGQGILVTVSS
VL: QPVLTQPASVSGSPGQSITISCTATSSDVGNYNYVSWYQHHPGKAPKLMIYEVSNRPSGVSNRFSGSKSGNTASLTISGLQAEDEADYYCSSYTSSSLLFGGGTKLTVL
Question: Does B1 bind?
Answer: no binding
